Test results as given in patent US20110217318A1 (MOCHIDA PHARMACEUTICAL, published 2011).
Substitutions are numbered along the chain they refer to.

What was measured:
[1] = biological target: T1, human GPVI extracellular region-human Fc fusion protein (hGPVI-hFc) (human); experiment: SPR BIACORE 3000, hGPVI-hFc on CM5 chip, 0-800 nM, bivalent analyte fit
T1 construct: Expressed in COS-1, purified on Protein A; also called GPVI-HHH-hFc; hGPVIHHH-hFc
Protocol: (§1) Dissociation constant for F1232-37-2 (whole antibody) prepared in EXAMPLE 2, and F(ab′)2 and Fab prepared in 22-1 and 21-2 was measured with Protein Interaction Analyzer BIACORE® 3000 (BIACORE). That is, hGPVI-hFc prepared in EXAMPLE 1 was coupled to sensorchip CM5 (BIACORE) according to the manual. Then a series of dilution from 0 to 800 nM of each antibody was prepared with HBS-EP buffer (BIACORE) and analyzed with BIACORE® 3000. After completion of antibody binding, chip was regenerated with glycine buffer (pH 1.5) (BIACORE). Regarding the results of whole antibody and F(ab′)₂, evaluation software Bivalent analyte (BIACORE) was used for analysis; 1:1 Binding for Fab analysis. Then the dissociation constant was calculated. As a result, dissociation constant of F1232-37-2 F(ab′)2 and Fab was about 0.7 and 0.6, respectively, when that of whole antibody defined as one.

[2] = biological target: T1, human GPVI extracellular region-human …; experiment: SPR BIACORE 3000, hGPVI-hFc on CM5 chip, 0-800 nM, 1:1 binding fit
Protocol: as §1

[3] = biological target: T1, human GPVI extracellular region-human …; experiment: SPR BIACORE 3000 as in Example 5
[4] = biological target: T1, human GPVI extracellular region-human …; experiment: binding to antigen of co-expressed chains; antigen construct not named

T1 sequence (chain, as listed by the source limits assumed): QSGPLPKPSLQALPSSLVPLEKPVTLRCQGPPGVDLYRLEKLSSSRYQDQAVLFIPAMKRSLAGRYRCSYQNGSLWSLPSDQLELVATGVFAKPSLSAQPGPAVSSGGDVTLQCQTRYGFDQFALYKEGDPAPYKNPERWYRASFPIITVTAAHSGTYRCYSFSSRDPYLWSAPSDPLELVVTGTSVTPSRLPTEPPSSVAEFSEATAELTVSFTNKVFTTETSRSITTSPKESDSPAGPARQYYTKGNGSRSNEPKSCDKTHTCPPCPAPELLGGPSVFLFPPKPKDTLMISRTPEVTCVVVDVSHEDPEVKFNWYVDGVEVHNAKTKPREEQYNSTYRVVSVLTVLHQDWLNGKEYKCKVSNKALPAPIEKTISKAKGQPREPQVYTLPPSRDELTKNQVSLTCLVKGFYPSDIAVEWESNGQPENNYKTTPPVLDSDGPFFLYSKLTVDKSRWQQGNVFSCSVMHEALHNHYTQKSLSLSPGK

B1: F1232-37-2 F(ab')2 (other)
VH: VQLQQSGPELVRPGESVKISCKGSGYTFTDYAIHWVKLSHAKSLEWIGVISIYYDDTNYNQKFKGKATMTVDKSSSTAYLELARLTSEDSAIYYCARRRDSSGPYAMDYWGQGTSVTVSS
VL: DIVLTQSPASLAVSLGQRATISCRASESVDSYGNSFMHWYQQKPGQPPKLLIYRASNLESGIPARFSGSGSRTDFTLTINPVEADDVATYYCQQSNEDPYTFGGGTKLEIKRADAA
notes: F(ab')2 made from the mouse antibody with lysyl endopeptidase
dissociation constant relative to whole antibody [1]: ~0.7 relative to whole F1232-37-2 = 1

B2: F1232-37-2 Fab (Fab, V domains shown)
VH: B1 VH
VL: DIVLTQSPASLAVSLGQRATISCRASESVDSYGNSFMHWYQQKPGQPPKLLIYRASNLESGIPARFSGSGSRTDFTLTINPVEADDVATYYCQQSNEDPYTFGGGTKLEIKR
notes: Fab made from the mouse antibody with papain
dissociation constant relative to whole antibody [2]: ~0.6 relative to whole F1232-37-2 = 1

B3: F1249-18-2 (antibody, V domains shown)
VH: QVQLQQPGAELVKPGASVKLSCKASGYTFTSYWMHWLKQRPGQGLEWIGMIHPNSDITNYNEKFKNKATLTVDKSSSTAYMQLSSLTSEDSAVYYCARSGDYYAMDYWGQGTSVTVSS
VL: SIVMTQTPKFLLVSAGDRVTITCKASQSVSNDVAWYQQKPGQSPKLLIYYASNRYTGVPDRFTGSGYGTDFTFTISTVQAEDLAVYFCQQDYSSPPTFGGGTKLEIKR
notes: mouse hybridoma monoclonal antibody
KD (Relative value) [3]: 0.00103 relative to F1232-37-2 = 1

B4: F1245-6-2 (antibody, V domains shown)
VH: QVQLQQPGAELVKPGASVKLSCKASGYTFTSYWMHWVKQRPGQGLEWIGMIHPNSGSTNYNEKFKSKATLTVDKSSSTAYMQLSSLTSEDSAVYYCARGGVTPVAYWGQGTLVTVSA
VL: B3 VL with D60Y, P96W
notes: as for B3
KD (Relative value) [3]: 0.122 relative to F1232-37-2 = 1

B5: F1245-5-1 (antibody, V domains shown)
VH: B4 VH with T30I, N59H
VL: B3 VL with P96W
notes: as for B3
KD (Relative value) [3]: 1.43 relative to F1232-37-2 = 1

B6: F1245-4-1 (antibody, V domains shown)
VH: QVQLQQPGAELVKPGASVKLSCKASGCTFTSYWMHWVKQRPGQGLEWIGMIHPNSDNTNYNEKFKSKATLTVDKSSSTAYMHLSSLTSEDSAVYYCATHYYDYVDYWGQGTTLTVSS
VL: B3 VL with S1N, P96W
notes: as for B3
KD (Relative value) [3]: 0.00427 relative to F1232-37-2 = 1

B7: F1249-5-1 (antibody, V domains shown)
VH: B3 VH with D73A, S99L
VL: B3 VL with A34T
notes: as for B3
KD (Relative value) [3]: 0.00285 relative to F1232-37-2 = 1

B8: F1251-1-1 (antibody, V domains shown)
VH: QVNLLQSGAALVKPGASVKLSCKASGYTFTDYYIHWVKQSHGKSLEWIGYINPNSGYTNYNEKFKSKATLTVDKSTNTAYMELSRLTSEDSATYYCTRCNSGYGDWFAYWGQGTLLTVSS
VL: DIQMTQSPPVLSASVGDRVTLSCKASQNINKNLDWYQQKHGEAPKLLIYYTNNLQTDIPSRFSGSGSGTDYTLTISSLQPEDVATFYCYQYNSGPGTFGAGTKLELKR
notes: rat hybridoma monoclonal antibody
KD (Relative value) [3]: 7.9 relative to F1232-37-2 = 1

B9: F1245-7-1 (antibody, V domains shown)
VH: QVQLQQPGAELVKPGASVKLSCKASGYTFTSYWMHWVKQRPGQGLEWIGMIHPNSGSTNYNEKFKSKATLTVDKSSSTAYMQLSSLTSEDSAVYYCASPVTAVVEYYFDYWGQGTTLTVSS
VL: SIVMTQTPKFLLVSAGDRVTITCKASQSVSNDVAWYQQKPGQSPKLLIYYASNRYTGVPDRFTGSGYGTDFTFTISTVQAEDLAVYFCQQDYSSLTFGSGTKLEIKR
notes: as for B3
KD (Relative value) [3]: 0.00293 relative to F1232-37-2 = 1

B10: humanized F1232-37-2: Eu-HC with REI-KA (antibody, human IgG4, V domains shown)
VH: QVQLVQSGAEVKKPGSSVKVSCKASGGTFSDYAIHWVRQAPGQGLEWIGVISIYYDDTNYNQKFKGKATITADESTNTAYMELSSLRSEDTAIYYCARRRDSSGPYAMDYWGQGTLVTVSS
VL: DIQMTQSPSSLSASVGDRVTITCRASESVDSYGNSFMHWYQQKPGKAPKLLIYRASNLESGVPSRFSGSGSGTDFTFTISSLQPEDIATYYCQQSNEDPYTFGQGTKVEIKR
notes: human IgG4 heavy and kappa light constant regions
binding result [4]: binds

B11: humanized F1232-37-2: Eu-HC with Eu-KA (antibody, human IgG4, V domains shown)
VH: B10 VH
VL: B10 VL with S10T, I52M, S67I, D74E, F77L, E85D, I87F, I110V
notes: as for B10
binding result [4]: binds

B12: F1257-3-1 (antibody, V domains shown)
VH: QVTLKESGPGMLQPSKTLSLTCSFSGFSLSTSGMVVSWIRQPSGKSLEWLAAIDWDGDKYYNPSLKSRLTVSKDTSNTQVFLKISSVDIADTATYYCARTPYYGYKEAYYFDYWGQGVKVTVSS
VL: DIQMTQSPASLSASLEEIVTITCKASRAIDDYLSWYQQKPGKSPQLLIYDATSLADGVPSRFSGSRSGTQYSLKISRPQVDDSGIYYCLQSYSTPWTFGGGTKLDLKR
notes: as for B8
KD (Relative value) [3]: 0.00298 relative to F1232-37-2 = 1

B13: F1249-22-1 (antibody, V domains shown)
VH: QVQLQQPGAELVKPGASVKLSCKASGYTFTSYWMQWVKERPGQGLEWIGEIDPSDSYTNYNQKFKGKATLTVDTSSSTACMQLSSLTSEDSAVYYCARGAITTATLDYWGQGTTLTVSS
VL: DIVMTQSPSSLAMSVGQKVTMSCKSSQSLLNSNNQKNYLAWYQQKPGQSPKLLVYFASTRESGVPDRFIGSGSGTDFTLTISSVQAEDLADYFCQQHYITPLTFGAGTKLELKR
notes: as for B3
KD (Relative value) [3]: 2.06 relative to F1232-37-2 = 1

B14: F1246-1-1 (antibody, V domains shown)
VH: EVQLVESGGDLVKPGGSLKLSCAASGFTFSSYGMSWVRQTPDKRLEWVATISNGGTYTYYPDSVKGRFTISRDNAKNTLYLQMSSLKSDDTAMYYCGRLRDYYAMDYWGQGTSVTVSS
VL: B2 VL with Y100W
notes: as for B3
KD (Relative value) [3]: 0.884 relative to F1232-37-2 = 1

B15: F1249-3-2 (antibody, V domains shown)
VH: EVQLVESGGGLVKPGGSLKLSCAASGFTFSSYGMSWVRQTPDKRLEWVATISSGGSYTYYSDSVKGRFTISRDNAKNNLYLQLSSLKSQDTAIYYCARDSGYFDYWGQGTTLTVSS
VL: B2 VL with D1N, R54L, I62V, N80D, V87A, S95N, Y100R
notes: as for B3
KD (Relative value) [3]: 1.59 relative to F1232-37-2 = 1

B16: F1249-20-1 (antibody, V domains shown)
VH: QVQLQQSGAELVRPGVSVKISCKGSGYTFTDYAMHWVKQSHAKSLEWIGVISTYYGDTSYNQKFKGKATMTVDKSSSTAYMELARLTSEDSAIYYCARAEDYDPWFAYWGQGTLVTVSA
VL: B2 VL with H38Y, N96D, Y100L, G104A, I110L
notes: as for B3
KD (Relative value) [3]: 0.00205 relative to F1232-37-2 = 1

B17: F1249-24-1 (antibody, V domains shown)
VH: B16 VH
VL: B2 VL with N96D, Y100L, G104A, I110L
notes: as for B3
KD (Relative value) [3]: 0.00821 relative to F1232-37-2 = 1

B18: F1249-30-1 (antibody, V domains shown)
VH: B16 VH with T69A, E89D
VL: B2 VL with N96D, Y100L, G104A, I110L
notes: as for B3
KD (Relative value) [3]: 0.347 relative to F1232-37-2 = 1
